Data from US20190241662A1 (ADAGENE, published 2019).
Values belong to the binder of their own block, whether it stands above or below them.

Columns and labels:
[1] = target: T1, recombinant human CTLA4-Fc (human, UniProt P16410 36-162); assay: BLI Octet, CTLA4-Fc on AHC sensor, Fab 10 ug/mL
T1 construct: also called human CTLA4 fused with human FC fragment; CTLA4-Fc (Sino Biological, 11159-H03H)
T1 sequence (looked up): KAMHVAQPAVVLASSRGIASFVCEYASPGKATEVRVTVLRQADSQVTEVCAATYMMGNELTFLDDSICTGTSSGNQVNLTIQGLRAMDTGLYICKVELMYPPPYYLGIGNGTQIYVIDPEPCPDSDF
Experimental: Proprietary phagemid libraries (see PCT application number PCT/CN2017/098333, incorporated herein by reference in its entirety; see also PCT application number PCT/CN2017/098299, incorporated herein by reference in its entirety) were employed to pan against human CTLA4 antigens. A total of 3-5 rounds of panning were conducted. After the final round of panning, single-colony supernatant ELISA was performed to identify the primary hits that specifically recognized human CTLA4 (see e.g., UniProt Accession Number P16410). The primary hits were defined as those whose ELISA signals were at least twice that of background. The hits were then sequenced, and the unique clones were expressed in E. coli and purified. Their affinities against human CTLA4 were measured by ForteBio Octet RED96 Systems. […] The acquired ForteBio data were processed with Data Acquisition software 7.1, and kinetic data were fitted to a 1:1 Langmuir binding model.

[2] = target: T2, full-length human CTLA4 expressed on cells (human, UniProt P16410 36-223); assay: flow cytometry, transfected HEK293F cells, antibody concentration not printed [Cont.]
T2 construct: whole, on cells; also called HEK293F/hCTLA-4 cells; HEK293F/hCTLA4 cells
T2 sequence (looked up): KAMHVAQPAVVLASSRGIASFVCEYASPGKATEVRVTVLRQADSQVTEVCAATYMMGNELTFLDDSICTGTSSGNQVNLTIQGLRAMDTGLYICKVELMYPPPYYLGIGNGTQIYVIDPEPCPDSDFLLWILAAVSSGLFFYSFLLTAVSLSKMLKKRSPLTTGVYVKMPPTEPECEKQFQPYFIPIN
Experimental: (§1) The affinities of the antibodies were also assessed against human and mouse CTLA4 transiently expressed on the surface of HEK293F cells (FIG. 2). Briefly, HEK293F cells were transfected with a plasmid expressing full-length human, monkey or mouse CTLA4 from a bicistronic IRES vector also encoding EGFP, and EGFP expression was used to identify the transfected cells. After 48 hours, the mammalian cell suspension (2×10⁵/well) was transferred to an Eppendorf tube, centrifuged, the supernatant was discarded, the cells were resuspended with 1 mL PBSA (to a density is 4×10⁶ cells/mL), and added to a 96 well plate. […] The cells were then washed once prior to analysis by flow cytometry (Beckman® CytoFlex).

[3] = target: T3, full-length mouse CTLA4 expressed on HEK293F cells (mouse, UniProt P09793 36-223); assay: as above
T3 construct: whole, on cells
Experimental: as §1

[4] = target: T4, recombinant human CTLA4 fused with human Fc and His tag (human, UniProt P16410 36-162, limits assumed); assay: competition ELISA: plate-bound human CTLA4-Fc-His, biotinylated CD80 as blocked ligand
T4 construct: Coated in the CD80 ELISA, biotinylated and in solution in the CD86 ELISA; also called biotinylated human CTLA4 fused with human FC and His tag
T4 sequence (looked up): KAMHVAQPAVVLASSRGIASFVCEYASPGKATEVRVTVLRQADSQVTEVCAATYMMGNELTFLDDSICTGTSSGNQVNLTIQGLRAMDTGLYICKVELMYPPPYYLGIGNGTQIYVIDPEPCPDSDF
Experimental: Antibodies were then tested for their ability to block binding of CTLA4 to its cognate ligands CD80 and CD86 by ELISA. […] Plates were blocked with PBS supplemented with 2% (w/v) skim milk at 37° C. for 1 hour. […] Plates were washed four times, and 100 μL HRP-neutravidin (1:1000) was added to each well and incubated at 37° C. for 1 hour. Plates were washed as previously described, and 50 μL TMB substrate solution was added and incubated at room temperature for 5 minutes before the reaction was stopped by 50 μL sulfate acid (2M).

[5] = target: T2, full-length human CTLA4 expressed on …; assay: flow cytometry blocking: HEK293F cells with human CTLA4, 100 nM antibody, then 100 nM CD80-Fc-Bio (blocked ligand); PBSA panel: Mean 157692, 26.3%
Experimental: Antibodies were also tested for their ability to block binding of CTLA4 to its cognate ligands CD80 and CD86 by flow cytometry. The plasmid encoding full-length human CTLA4 was transiently expressed in HEK293F cells. Cells were washed with staining buffer (PBSA buffer including 1.76 mM KH₂PO₄, 10.14 mM Na₂HPO₄.12H₂O, 2.68 mM KCl, 136.89 mM NaCl and 1% BSA), and resuspended in staining buffer containing 100 nM test antibodies. […] Cells were washed once, and analyzed by CytoFlex flow cytometry.

[6] = target: T1, recombinant human CTLA4-Fc; assay: ELISA, coated human CTLA4-Fc (as in Example 8)
Experimental: Plates were blocked with PBS supplemented with 3% non-fat milk at 37° C. for 1 hour. After washing, 100 μL of 3-fold serial dilutions of antibodies were added to each well. After incubation at 37° C. for 1 hour, plates were washed four times, and 100 μL HRP conjugated anti-human IgG (Fab specific) (1:6000 dilution) was added to each well. Plates were incubated at 37° C. for 1 hour, washed four times, and then 50 μL TMB substrate solution was added to each well, and the plate was incubated at room temperature. […] The EC₅₀ was evaluated by fitting the ELISA data using the asymmetrical sigmoidal (five-parameter logistic equation) model of GraphPad Prism 6 software.

[7] = target: T5, recombinant human CTLA4 protein (construct not stated) (human, UniProt P16410 36-162, limits assumed); assay: SPR (Biacore T200), IgG captured by anti-human Fc
T5 construct: also called biotinylated human CTLA4; human recombinant CTLA4 proteins
T5 sequence (looked up): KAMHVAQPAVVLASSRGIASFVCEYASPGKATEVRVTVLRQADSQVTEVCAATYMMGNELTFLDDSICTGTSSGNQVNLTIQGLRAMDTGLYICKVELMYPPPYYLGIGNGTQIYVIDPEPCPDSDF
From the text: (§2) Binding affinity and kinetics of antibodies against human, monkey and mouse CTLA4 were examined (Table 4) by surface plasmon resonance (SPR) analysis using a Biacore™ T200 instrument (Biacore AB, Uppsala, Sweden) according to the manufacturer's guidelines. Anti-Human IgG (Fc) antibody from Human Antibody Capture Kit (GE BR-1008-39) was immobilized on CM5 chips by coupling of its amine groups onto carboxylated surfaces of sensor chips according to the instructions of an Amine Coupling kit (GE Biacore #BR-1000-50). […] The association and dissociation curves were fitted to a 1:1 Langmuir binding model using Biacore T200 Evaluation Software (Biacore AB) according to the manufacturer's guidelines.

[8] = target: T6, monkey CTLA4 (SPR analyte, construct not stated) (monkey, UniProt G7PL88 36-161); assay: SPR (Biacore T200), IgG captured by anti-human Fc
T6 sequence: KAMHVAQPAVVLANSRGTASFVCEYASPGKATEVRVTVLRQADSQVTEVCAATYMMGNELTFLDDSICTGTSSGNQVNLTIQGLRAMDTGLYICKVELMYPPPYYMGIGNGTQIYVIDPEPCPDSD
From the text: as §2

[9] = target: mouse CTLA4 (SPR analyte, construct not stated) (mouse, UniProt P09793 36-162, limits assumed); assay: SPR (Biacore T200), IgG captured by anti-human Fc
From the text: as §2

% of cells in upper right quadrant (Q2) [2]: 27%
% of cells in upper right quadrant (Q2) [3]: 32.1%
IC50 (read off the curve) [4]: ~1 nM
% of cells in upper right quadrant (CD80-positive) in the presence of the antibody [5]: 19.4%
Mean of the CD80 binding signal in the presence of the antibody [5]: 8180
B2: TY21588 (antibody, V domains shown)
VH: EVQLVESGGGLVQPGGSLRLSCAASGYSISSGYHWDWIRQAPGKGLEWVSGISGYGGSTYYADSVKGRFTISRDNSKNTLYLQLNSLRAEDTAVYYCARHSYYGSGNFDYWGQGTLVTVSS
VL: DIQLTQSPSSLSASVGDRVTITCRASESVDFFGKSFLHWYQQKPGKAPKLLIYDASNLETGVPSRFSGSGSGTDFTLTISSLQPEDFATYYCQQSYSWPPTFGQGTKVEIKR
notes: human IgG1 (hIgG1) from Fab hit B15732

Kd [1]: 105 nM
B3: B15717 (Fab, V domains shown)
VH: EVQLVESGGGLVQPGGSLRLSCAASGYTFSGYGIHWVRQAPGKGLEWIGEIYHSGSTYYSPSLKSRVTISRDNSKNTLYLQLNSLRAEDTAVYYCARRIDAFDIWGQGTLVTVSS
VL: DIQLTQSPSSLSASVGDRVTITCRASQSVDFDGFSFLHWYQQKPGKAPKLLIYDASSLESGVPSRFSGSGSGTDFTLTISSLQPEDFATYYCQQRDSWPYTFGQGTKVEIKR
notes: Fab from E. coli; also called Fab hit of TY21689

Kd [1]: 61.2 nM
koff [1]: 0.00434 s⁻¹
kon [1]: 70900 M⁻¹ s⁻¹
B5: B15722 (Fab, V domains shown)
VH: EVQLVESGGGLVQPGGSLRLSCAASGFTFSDYGIHWVRQAPGKGLEWIGEIYHSGSTYYSPSLKSRVTISRDNSKNTLYLQLNSLRAEDTAVYYCARDVAPGSSGYYDGFDFWGQGTLVTVSS
VL: DIQLTQSPSSLSASVGDRVTITCRASQGIGSSLAWYQQKPGKAPKLLIYDASNRATGIPSRFSGSGSGTDFTLTISSLQPEDFATYYCQQYDQWPPWTFGQGTKVEIKR
notes: Fab from E. coli; also called Fab hit of TY21587

EC50 [6]: 133 nM
B7: TY23289 (antibody, V domains shown)
VH: EVQLVESGGGLVQPGGSLRLSCAASGYSISSGYHWSWIRQAPGKGLEWLARIDWDDDKYYSTSLKSRLTISRDNSKNTLYLQLNSLRAEDTAVYYCARSYVYFDYWGQGTLVTVSS
VL: DIQLTQSPSSLSASVGDRVTITCRASQSVRGRFLAWYQQKPGKAPKLLIYDASNRATGIPSRFSGSGSGTDFTLTISSLQPEDFATYYCQQSSSWPPTFGQGTKVEIKR

The remaining lines, values behind:

B1: B15716 (Fab, V domains shown)
VH: EVQLVESGGGLVQPGGSLRLSCAASGYSITSGYYWAWIRQAPGKGLEWVSSISGSGSTTYYADSVKGRFTISRDNSKNTLYLQLNSLRAEDTAVYYCARDGFGYFDYWGQGTLVTVSS
VL: DIQLTQSPSSLSASVGDRVTITCSASSSVSYVYWYQQKPGKAPKLLIYDASSLESGVPSRFSGSGSGTDFTLTISSLQPEDFATYYCVQGLQTPWTFGQGTKVEIKR
notes: Fab from E. coli; also called Fab hit of TY21586
Kd [1]: 12.1 nM

B4: B15756 (Fab, V domains shown)
VH: EVQLVESGGGLVQPGGSLRLSCAASGFSLSTGGVAVSWIRQAPGKGLEWIGEIYHSGSTYYSPSLKSRVTISRDNSKNTLYLQLNSLRAEDTAVYYCARRIATATYFDYWGQGTLVTVSS
VL: DIQLTQSPSSLSASVGDRVTITCRASQTVFSRYLAWYQQKPGKAPKLLIYDASNRATGIPSRFSGSGSGTDFTLTISSLQPEDFATYYCQQSYYWPPWTFGQGTKVEIKR
notes: Fab from E. coli; also called Fab hit of TY21591
Kd [1]: 55.5 nM
koff [1]: 0.00663 s⁻¹
kon [1]: 120000 M⁻¹ s⁻¹

B6: TY23286 (antibody, V domains shown)
VH: EVQLVESGGGLVQPGGSLRLSCAASGYSISSGYHWSWIRQAPGKGLEWLARIDWDDDKYYSTSLKSRLTISRDNSKNTLYLQLNSLRAEDTAVYYCARSYVYFDYWGQGTLVTVSS
VL: DIQLTQSPSSLSASVGDRVTITCRASQSVRGRFLAWYQQKPGKAPKLLIYDASNRATGIPSRFSGSGSGTDFTLTISSLQPEDFATYYCQQSSSWPPTFGQGTKVEIKR
EC50 [6]: 1500 nM

B8: TY23291 (antibody, V domains shown)
VH: EVQLVESGGGLVQPGGSLRLSCAASGYSISSGYHWSWIRQAPGKGLEWLARIDWDDDKYYSTSLKSRLTISRDNSKNTLYLQLNSLRAEDTAVYYCARSYVYFDYWGQGTLVTVSS
VL: DIQLTQSPSSLSASVGDRVTITCRASQSVRGRFLAWYQQKPGKAPKLLIYDASNRATGIPSRFSGSGSGTDFTLTISSLQPEDFATYYCQQSSSWPPTFGQGTKVEIKR
EC50 [6]: 3660 nM

B9: TY23280 (antibody, V domains shown)
VH: EVQLVESGGGLVQPGGSLRLSCAASGYSISSGYHWSWIRQAPGKGLEWLARIDWDDDKYYSTSLKSRLTISRDNSKNTLYLQLNSLRAEDTAVYYCARSYVYFDYWGQGTLVTVSS
VL: DIQLTQSPSSLSASVGDRVTITCRASQSVRGRFLAWYQQKPGKAPKLLIYDASNRATGIPSRFSGSGSGTDFTLTISSLQPEDFATYYCQQSSSWPPTFGQGTKVEIKR
EC50 [6]: 2950 nM

B10: TY21692 (antibody, V domains shown)
VH: EVQLVESGGGLVQPGGSLRLSCAASGYSITSGHYWSWIRQAPGKGLEWIGDISHSGSTYYSQSLKSRVTISRDNSKNTLYLQLNSLRAEDTAVYYCARGSRTGYFDYWGQGTLVTVSS
VL: DIQLTQSPSSLSASVGDRVTITCRASQSISSYLNWYQQKPGKAPKLLIYDASNLETGVPSRFSGSGSGTDFTLTISSLQPEDFATYYCQHHYGTPLTFGQGTKVEIKR
notes: human IgG1 (hIgG1) from Fab hit B16083
Kd [7]: 3.95 nM
Kd [8]: 2.76 nM
Kd [9]: 1.12 nM
